# Where a chain is given by its changes, count along the chain named.
# B1: H4H12899P (antibody, human IgG4 S228P, kappa, V domains shown)
# VH: QVQLVESGGDLVKPGGSLRLSCATSGFTFSDFYMTWIRQAPGKGLEWISYISNSGSIVKYADSVKGRFTISRDNAKNSLYLQMNSLRAEDTAIYYCARFYGDRWGQGTLVTVSS
# VL: DIQLTQSPSFLSASVGDRVTITCWASQGISTFLAWYQQKPGKAPKLLIYAASTLQSGVPSRFSGSGSGTDFTLTISSLQPEDFATYHCQQLNNYPWTFGQGTKVEIKR
# B2: H4H12900P (antibody, human IgG4 S228P, kappa, V domains shown)
# VH: QVQLVESGGGLVKPGGSLRLSCEASGFTFNDFYMTWIRQAPGKGLEWIAYISKSGDKMRYADSVKGRFSTSRDNAKNSLSLQMNSLRAEDTAVYYCARFYGDIWGQGTLVTVSS
# VL: B1 VL with G28D, T31S, A34V, K45N, T53A, D70E, T85S, H87Y, Q89E
# B3: human IL-7 (ligand, UniProt P13232 26-177, looked up)
# chain: DCDIEGKDGKQYESVLMVSIDQLLDSMKEIGSNCLNNEFNFFKRHICDANKEGMFLFRAARKLRQFLKMNSTGDFDLHLLKVSEGTTILLNCTGQVKGRKPAALGEAQPTKSLEENKSLKEQKKLNDLCFLKRLLQEIKTCWNKILMGTKEH
# Experiments:
# [1] = molecular target: Human IL2Rγ extracellular domain expressed with a C-terminal mouse IgG2a Fc tag (human); test: SPR Biacore 4000, anti-hFc-captured mAb, 25 C
# [2] = molecular target: Human IL2Rγ extracellular domain expressed with a C-terminal mouse IgG2a Fc tag (human); test: SPR Biacore 4000, anti-hFc-captured mAb, 37 C
# [3] = molecular target: human IL2Rγ (endogenously expressed on cells) (human) (UniProt P31785); test: cell-based or functional assay
# Chain of human IL2Rγ (endogenously expressed on cells) (human) (P31785 23-369): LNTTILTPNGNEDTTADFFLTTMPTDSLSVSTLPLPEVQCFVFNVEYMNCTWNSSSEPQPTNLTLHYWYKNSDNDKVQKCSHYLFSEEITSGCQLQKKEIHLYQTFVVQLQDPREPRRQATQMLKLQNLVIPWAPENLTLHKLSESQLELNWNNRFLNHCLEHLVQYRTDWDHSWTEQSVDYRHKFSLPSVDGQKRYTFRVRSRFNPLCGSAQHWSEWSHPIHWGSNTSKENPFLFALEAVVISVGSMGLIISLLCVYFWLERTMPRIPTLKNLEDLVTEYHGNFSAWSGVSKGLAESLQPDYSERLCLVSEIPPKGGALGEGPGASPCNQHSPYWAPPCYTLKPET
# Chain of Human IL2Rγ extracellular domain expressed with a C-terminal mouse IgG2a Fc tag (human) (chain, as listed by the source limits assumed): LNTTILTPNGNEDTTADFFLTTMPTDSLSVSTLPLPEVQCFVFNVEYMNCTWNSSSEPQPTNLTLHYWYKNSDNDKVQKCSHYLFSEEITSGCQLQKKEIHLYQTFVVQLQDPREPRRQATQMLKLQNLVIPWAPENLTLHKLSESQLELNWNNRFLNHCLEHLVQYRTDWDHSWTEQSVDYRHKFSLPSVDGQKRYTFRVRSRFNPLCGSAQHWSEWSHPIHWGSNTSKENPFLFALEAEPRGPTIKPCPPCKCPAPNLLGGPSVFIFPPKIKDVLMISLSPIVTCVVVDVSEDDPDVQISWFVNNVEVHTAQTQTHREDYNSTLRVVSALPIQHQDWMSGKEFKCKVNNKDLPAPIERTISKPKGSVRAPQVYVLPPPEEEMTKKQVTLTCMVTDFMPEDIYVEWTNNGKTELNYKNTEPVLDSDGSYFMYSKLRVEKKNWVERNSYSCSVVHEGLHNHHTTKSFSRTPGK
Binder,50 nM Ag Bound [1],50 nM Ag Bound [2],EC50; IL-7 dose response; NK92/hIL7R/STAT3-luc [3]
B1,1 RU,2 RU,–
B2,4 RU,4 RU,–
B3,–,–,39 pM

# From patent US20200247894A1
